Patent US20180071366A1
Numbered stars: 1 amine (or outer) side, 2 acyl side, 3 side chain; on linkers, the order of the positions; unused ones are H or OH. Bridge positions count the residues as written; N and C are the ends. Square brackets hold non-standard residues; d marks the D form. * marks the point of attachment. C20 diacid = O=C(O)CCCCCCCCCCCCCCCCCCC(=O)*; γGlu = O=C(O)[C@H](CCC(=O)[*:2])N[*:1]; Hyp = O=C(O)[C@@H]1C[C@@H](O)CN1; NMeI = CC[C@H](C)[C@H](NC)C(=O)O; Aad = N[C@@H](CCCC(=O)O)C(=O)O; Orn = NCCC[C@H](N)C(=O)O; Dab = NCC[C@H](N)C(=O)O; Dap = NC[C@H](N)C(=O)O; Sar = CNCC(=O)O

B1: Compound 49 (peptide)
peptide: {C20 diacid-γGlu}-R[Dab]GTATEATERLAHFLQRSSF[Sar]A[NMeI]LSSTEVGSNT[Hyp]-NH2
modifications: lactam 2-7
SMILES: CC[C@H](C)[C@@H](C(=O)N[C@@H](CC(C)C)C(=O)N[C@@H](CO)C(=O)N[C@@H](CO)C(=O)N[C@H](C(=O)N[C@@H](CCC(=O)O)C(=O)N[C@H](C(=O)NCC(=O)N[C@@H](CO)C(=O)N[C@@H](CC(N)=O)C(=O)N[C@H](C(=O)N1C[C@H](O)C[C@H]1C(N)=O)[C@@H](C)O)C(C)C)[C@@H](C)O)N(C)C(=O)[C@H](C)NC(=O)CN(C)C(=O)[C@H](Cc1ccccc1)NC(=O)[C@H](CO)NC(=O)[C@H](CO)NC(=O)[C@H](CCCNC(=N)N)NC(=O)[C@H](CCC(N)=O)NC(=O)[C@H](CC(C)C)NC(=O)[C@H](Cc1ccccc1)NC(=O)[C@H](Cc1c[nH]cn1)NC(=O)[C@H](C)NC(=O)[C@H](CC(C)C)NC(=O)[C@H](CCCNC(=N)N)NC(=O)[C@H](CCC(=O)O)NC(=O)[C@@H](NC(=O)[C@H](C)NC(=O)[C@@H]1CCC(=O)NCC[C@H](NC(=O)[C@H](CCCNC(=N)N)NC(=O)CC[C@H](NC(=O)CCCCCCCCCCCCCCCCCCC(=O)O)C(=O)O)C(=O)NCC(=O)N[C@@H]([C@@H](C)O)C(=O)N[C@@H](C)C(=O)N[C@@H]([C@@H](C)O)C(=O)N1)[C@@H](C)O
B2: Compound 46 (peptide)
peptide: {C20 diacid-γGlu}-R[Dab]GTATDATERLAHFLQRSSF[Sar]A[NMeI]LSSTEVGSNT[Hyp]-NH2
modifications: lactam 2-7
SMILES: CC[C@H](C)[C@@H](C(=O)N[C@@H](CC(C)C)C(=O)N[C@@H](CO)C(=O)N[C@@H](CO)C(=O)N[C@H](C(=O)N[C@@H](CCC(=O)O)C(=O)N[C@H](C(=O)NCC(=O)N[C@@H](CO)C(=O)N[C@@H](CC(N)=O)C(=O)N[C@H](C(=O)N1C[C@H](O)C[C@H]1C(N)=O)[C@@H](C)O)C(C)C)[C@@H](C)O)N(C)C(=O)[C@H](C)NC(=O)CN(C)C(=O)[C@H](Cc1ccccc1)NC(=O)[C@H](CO)NC(=O)[C@H](CO)NC(=O)[C@H](CCCNC(=N)N)NC(=O)[C@H](CCC(N)=O)NC(=O)[C@H](CC(C)C)NC(=O)[C@H](Cc1ccccc1)NC(=O)[C@H](Cc1c[nH]cn1)NC(=O)[C@H](C)NC(=O)[C@H](CC(C)C)NC(=O)[C@H](CCCNC(=N)N)NC(=O)[C@H](CCC(=O)O)NC(=O)[C@@H](NC(=O)[C@H](C)NC(=O)[C@@H]1CC(=O)NCC[C@H](NC(=O)[C@H](CCCNC(=N)N)NC(=O)CC[C@H](NC(=O)CCCCCCCCCCCCCCCCCCC(=O)O)C(=O)O)C(=O)NCC(=O)N[C@@H]([C@@H](C)O)C(=O)N[C@@H](C)C(=O)N[C@@H]([C@@H](C)O)C(=O)N1)[C@@H](C)O
B3: Compound 47 (peptide)
peptide: {C20 diacid-γGlu}-R[Orn]GTATDATERLAHFLQRSSF[Sar]A[NMeI]LSSTEVGSNT[Hyp]-NH2
modifications: lactam 2-7
SMILES: CC[C@H](C)[C@@H](C(=O)N[C@@H](CC(C)C)C(=O)N[C@@H](CO)C(=O)N[C@@H](CO)C(=O)N[C@H](C(=O)N[C@@H](CCC(=O)O)C(=O)N[C@H](C(=O)NCC(=O)N[C@@H](CO)C(=O)N[C@@H](CC(N)=O)C(=O)N[C@H](C(=O)N1C[C@H](O)C[C@H]1C(N)=O)[C@@H](C)O)C(C)C)[C@@H](C)O)N(C)C(=O)[C@H](C)NC(=O)CN(C)C(=O)[C@H](Cc1ccccc1)NC(=O)[C@H](CO)NC(=O)[C@H](CO)NC(=O)[C@H](CCCNC(=N)N)NC(=O)[C@H](CCC(N)=O)NC(=O)[C@H](CC(C)C)NC(=O)[C@H](Cc1ccccc1)NC(=O)[C@H](Cc1c[nH]cn1)NC(=O)[C@H](C)NC(=O)[C@H](CC(C)C)NC(=O)[C@H](CCCNC(=N)N)NC(=O)[C@H](CCC(=O)O)NC(=O)[C@@H](NC(=O)[C@H](C)NC(=O)[C@@H]1CC(=O)NCCC[C@H](NC(=O)[C@H](CCCNC(=N)N)NC(=O)CC[C@H](NC(=O)CCCCCCCCCCCCCCCCCCC(=O)O)C(=O)O)C(=O)NCC(=O)N[C@@H]([C@@H](C)O)C(=O)N[C@@H](C)C(=O)N[C@@H]([C@@H](C)O)C(=O)N1)[C@@H](C)O
B4: Compound 48 (peptide)
peptide: {C20 diacid-γGlu}-R[Dap]GTAT[Aad]ATERLAHFLQRSSF[Sar]A[NMeI]LSSTEVGSNT[Hyp]-NH2
modifications: lactam 2-7
SMILES: CC[C@H](C)[C@@H](C(=O)N[C@@H](CC(C)C)C(=O)N[C@@H](CO)C(=O)N[C@@H](CO)C(=O)N[C@H](C(=O)N[C@@H](CCC(=O)O)C(=O)N[C@H](C(=O)NCC(=O)N[C@@H](CO)C(=O)N[C@@H](CC(N)=O)C(=O)N[C@H](C(=O)N1C[C@H](O)C[C@H]1C(N)=O)[C@@H](C)O)C(C)C)[C@@H](C)O)N(C)C(=O)[C@H](C)NC(=O)CN(C)C(=O)[C@H](Cc1ccccc1)NC(=O)[C@H](CO)NC(=O)[C@H](CO)NC(=O)[C@H](CCCNC(=N)N)NC(=O)[C@H](CCC(N)=O)NC(=O)[C@H](CC(C)C)NC(=O)[C@H](Cc1ccccc1)NC(=O)[C@H](Cc1c[nH]cn1)NC(=O)[C@H](C)NC(=O)[C@H](CC(C)C)NC(=O)[C@H](CCCNC(=N)N)NC(=O)[C@H](CCC(=O)O)NC(=O)[C@@H](NC(=O)[C@H](C)NC(=O)[C@@H]1CCCC(=O)NC[C@H](NC(=O)[C@H](CCCNC(=N)N)NC(=O)CC[C@H](NC(=O)CCCCCCCCCCCCCCCCCCC(=O)O)C(=O)O)C(=O)NCC(=O)N[C@@H]([C@@H](C)O)C(=O)N[C@@H](C)C(=O)N[C@@H]([C@@H](C)O)C(=O)N1)[C@@H](C)O

These binders were tested against recombinant human calcitonin receptor (hCT-R) (human), P30988 (assay: cell-based or functional assay).
Sequence of recombinant human calcitonin receptor (hCT-R) (human), P30988 (P30988 25-474): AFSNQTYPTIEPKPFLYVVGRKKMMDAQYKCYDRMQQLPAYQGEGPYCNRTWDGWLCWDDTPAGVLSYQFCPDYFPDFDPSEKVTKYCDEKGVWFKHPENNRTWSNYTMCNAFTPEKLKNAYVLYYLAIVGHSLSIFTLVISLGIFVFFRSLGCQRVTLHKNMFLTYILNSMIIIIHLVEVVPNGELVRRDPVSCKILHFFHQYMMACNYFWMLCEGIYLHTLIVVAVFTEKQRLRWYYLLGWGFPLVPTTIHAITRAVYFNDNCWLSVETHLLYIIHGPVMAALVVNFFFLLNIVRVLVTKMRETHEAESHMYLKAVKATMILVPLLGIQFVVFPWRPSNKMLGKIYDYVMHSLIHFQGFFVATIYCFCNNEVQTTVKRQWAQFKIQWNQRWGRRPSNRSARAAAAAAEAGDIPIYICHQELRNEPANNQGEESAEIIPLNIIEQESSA
Work on B1 yielded a hCT-R EC50 [nM] (cAMP formation, 1321N1 cells expressing hCT-R) of 1.04 nM.
In the case of B2, the hCT-R EC50 [nM] (cAMP formation, 1321N1 cells expressing hCT-R) is reported as 7.5 nM.
B3 was tested, and the hCT-R EC50 [nM] (cAMP formation, 1321N1 cells expressing hCT-R) was 10.8 nM.
For B4, the hCT-R EC50 [nM] (cAMP formation, 1321N1 cells expressing hCT-R) was 0.107 nM.

What follows are binders tested against recombinant human amylin 3 receptor (hAMYR3) (human), P30988 (assay: cell-based or functional assay).
Sequence of recombinant human amylin 3 receptor (hAMYR3) (human), P30988 (P30988 25-474, chain 1 of 2): as the sequence (P30988 25-474) above
Sequence of recombinant human amylin 3 receptor (hAMYR3) (human), P30988 (O60896 24-148, chain 2 of 2, further chain): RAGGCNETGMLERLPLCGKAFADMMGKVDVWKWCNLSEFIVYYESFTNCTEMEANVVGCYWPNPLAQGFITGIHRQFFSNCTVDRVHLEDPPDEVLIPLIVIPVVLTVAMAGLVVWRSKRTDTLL
Binder B1 has a hAMYR3 EC50 [nM] (cAMP formation, 1321N1 cells expressing hAMYR3) of 0.442 nM.
B2 was tested, and the hAMYR3 EC50 [nM] (cAMP formation, 1321N1 cells expressing hAMYR3) was 5.5 nM.
In the case of B3, the hAMYR3 EC50 [nM] (cAMP formation, 1321N1 cells expressing hAMYR3) is reported as 7.7 nM.
Work on B4 yielded a hAMYR3 EC50 [nM] (cAMP formation, 1321N1 cells expressing hAMYR3) of 0.02 nM.
